# In IntAct's records for PubMed 18394558:
# B1: Cyclin-dependent kinase 4 inhibitor C (Homo sapiens), P42773 (parent)
# chain: MAEPWGNELASAAARGDLEQLTSLLQNNVNVNAQNGFGRTALQVMKLGNPEIARRLLLRGANPDLKDRTGFAVIHDAARAGFLDTLQTLLEFQADVNIEDNEGNLPLHLAAKEGHLRVVEFLVKHTASNVGHRNHKGDTACDLARLYGRNEVVSLMQANGAGGATNLQ
# Variants of: B1
# Details: with cdk6_human CDK6, Q00534
# Sequence of cdk6_human CDK6, Q00534 (Q00534 whole entry): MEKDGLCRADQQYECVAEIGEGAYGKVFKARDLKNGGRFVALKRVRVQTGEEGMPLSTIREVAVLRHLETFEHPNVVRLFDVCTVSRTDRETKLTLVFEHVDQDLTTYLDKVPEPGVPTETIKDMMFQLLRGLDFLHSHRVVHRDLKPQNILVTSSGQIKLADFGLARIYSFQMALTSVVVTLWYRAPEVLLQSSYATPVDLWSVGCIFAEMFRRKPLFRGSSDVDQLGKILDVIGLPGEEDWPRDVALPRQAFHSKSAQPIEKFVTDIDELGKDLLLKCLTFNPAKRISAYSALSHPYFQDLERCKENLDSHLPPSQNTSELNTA
row,effect of a mutation on the interaction,Variant
1,disrupting interaction,MAEPWGNELASAAARGDLEQLTSLLQNNVNVNAQNGIGRTALQVMKLGNPEIARRLLLRGANPDLKDRTGFAVIHDAARAGFLDTLQTLLEFQADVNIEDNEGNLPLHLAAKEGHLRVVEFLVKHTASNVGHRNHKGDTACDLARLYGRNEVVSLMQANGAGGATNLQ [F37I]
2,decreasing interaction,MAEPWGNELASAAARGDLEQLTSLLQNNVNVNAQNGFGRTALQVMKLGNPEIARRLLLRGDNPDLKDRTGFAVIHDAARAGFLDTLQTLLEFQADVNIEDNEGNLPLHLAAKEGHLRVVEFLVKHTASNVGHRNHKGDTACDLARLYGRNEVVSLMQANGAGGATNLQ [A61D]
